# Laboratory results from the domain aggregation screens of Martell et al. (2025).
# Experiment: soluble fraction after stress (log2 fold change); higher = more stays soluble; pooled small domains, quantitative proteomics
# Conditions: stress: 75 degC
# 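Note: 20 min heating vs room temperature control held 20 min.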
row,Sequence,soluble fraction (log2)
1,HMQQFGANVRLIRKARQMSIKQLSELSGVSQTMISEVERGLKIPTIDVAGKIAAALGIDLTNLMG,-2.16
2,HMQQIQILPDGKIKLPDLSGTNMREAIEILHKGGLRMKPYGSGNAYQQKPAAGETVASGTTVEVLSL,0.151
3,HMQQLAEQIPTDRPYISIAEAVVLFGISRDTIYRQIRKGNIPAVNLGERLTRISRIHIEAMFPKV,-0.305
4,HMQQNYREMHKVKKGETLFGIARRYEITVDQLIKANPDMNAVGYELKKGDYIFIPYPDGQKP,-0.427
5,HMQRAEQLPAELAAVFRAETEAWGFFERQPPGYQRVAIHWVASAKQEATRLRRLAKLIEESAAGRR,-1.61
6,HMQRDTIAISAIPTAIKTYLSSTYPTDTLVHAFVNKDQSIVVISKNIDFYATSFSTANAFIKRIQLPA,-1.41
7,HMQRFIHITVSDVHQATRLLEEEMQLTNYSVAENNAIKIFEFTYEPQEINHLFGKNGIEVSSLFIGS,-0.0559
8,HMQRNLILKLDTDQPEIYKKLESIFVEINGLLVPFFIEKIIWSKQDSLNILFKNSSEALVEQLIGKNVFLP,0.2
9,HMQRSVNYSELHEIKERVFDALYSSPMSMPDLLAWLKGDEEHTISVIRLMQDNGDIEMGEDGRLAVV,-0.383
10,HMQSISLEEAKSAALDDAQLGIDEVEFLKTERNTDGDTSYYDIQFLVNGTIYKYQINTETGAILHVDYEA,0.0632
11,HMQSITAGDKVRVKNYTVSGGKKRGKVYGGAGTFVVYYEKYDVISVTGDRVVIGIGKAVTAAVHIDDLEK,-2.07
12,HMQSKSEINELPKSIHMAFSPKNFELFIDNLKINEIDFSNWKGELNTIQERVDGQRQIWIQDPQGYWIEIN,-0.0964
13,HMQSLIVPVPKPEDDPVYKDGIKQDPVEVVSIWLGRDYLNMILNLKVSTGKGHTFGIVEDVS,-0.157
14,HMQSNDTAEIEAVVKEIMAANERVVNDYRSGNTKVVSFFVGQVMKATKGKANPKVVNEVLAKLLK,-0.823
15,HMQSVPELDQQFKIAIENNDFIKLAQLKEQGYHPSKEVMQSLSNTTPNNTIIAVQKIFGLKA,0.546
16,HMQSVSANSVQKQLADIIDGEDKTHPLSDRELTEKLVAQGVQISRRTVAKYREAMGIPGASGRKQ,-0.0543
17,HMQTAAANPSPESILQAREAAGLSQSEAGALIYSGLRSWQHWEWGTRRMHPGLFELFLKKTGQI,-1.83
18,HMQTKMVYSDLVNSIKSEQVSSMLVSGNTVTVTLTNGDKAKVKIPSLDTLQADVGKEMNDQMDKGTLKQE,0.18
19,HMQTKNYVYFNNTENWSTVNVYVWSSKDSTYMSWPGKAMESIGNNTYRFELPNGAEYAIFNNGSAQTVD,-0.335
20,HMQTKSDMVYHRVREDIVNGVFAPGERLLISAVAKQYGVSEIPVREAFRVLSQEGFLKTRPNSGFVVS,-0.44
21,HMQTMTAGERREAILRELEQAQGPVSASALAKRFHVSRQAVVGDVAMLRALNSPIAATPRGYVLTR,-0.322
22,HMQTMTDDQVMQYVISQQEKGATQQDIVSKLLQKGVTVDQMRRIRKKYEAQQSQPGALDLTGSS,0.654
23,HMQTNEAIINQAVQAAEAQNITTRSQAVDALKANGMTEAQARQLAVQRGISYDQLINELFPME,0.0149
24,HMQTPVTVGDTMPNLIGTPKRLLLELLNRTDITVKLTGDGYVTAQSPAAGTPIAKGMIIELSL,-2.17

row,Sequence,soluble fraction (log2)
1,HMQTQVEVLVKYVLEDGTVYKEDKVSADIGAILDSGDLPMLSNDMKFIDDFLFYEVKESDNVIERKVAKLV,-0.782
2,HMQTQYIVDTKTTLLVRTGPGKSNSQFGRLKNGETINVYAIKNGWAEISYNGKTGYVSEQYIKLA,-3.59
3,HMQTTDTGAIETIVDELMAANPDKVEAYRGGKTGLQGFFMGQVMKQLGGQGNPKVISAIVTEKLE,0.603
4,HMQTTPAGHELLIRYFANGNIRERGMMKDGKRNGIWIFYDESGMEIRKTKYKMGKIISDYDLN,-2.6
5,HMQTTQQLIRNLRLKQAATLLADKRHSITEVATLTGFTHPTYFATAFREMFGVSPSEYMEQHI,-1.49
6,HMQTYNQLKRGMTEWIQAGQKQKAYELFAGVAGQLSLSSAAGKKQYNELVTILNRAGFGIPLE,-1.12
7,HMQVEMVLSQEAHEWLLQRGFIPEYGAREMDRVIAAHLKPLLMREILFGTLKAGGKVRVQVENGALKLQP,-3.08
8,HMQVLSESDVEDIKAISGGDKAYDNLMEWAGSKLSKQDAKDYDDVLATGNKTAITFAVKALMAQYENAN,-0.198
9,HMQVPFGFQRNPSTGTLEEKAEEQLIINQVLSLKNSGIGVSEISKRLGELSVSRIYRIINTAKKNAS,-0.812
10,HMQVSDANQLTDVVKSIIKQYPVEVEKYKSGKKALFGFFMGKVMENLKGKSNPKILKNVLTEILD,0.22
11,HMQVSDTNTLEQFAKEVIEANPKAVEDYHQNPLAIGFLVGQLMKVSKGSANPQTGKEILEKLL,-0.112
12,HMQVSDVTTIRALVEEVLSSSPQQLAQYRAGKLSLKGYFVGQVMKKGKGQLNAAAVNNLLDEIL,-2.41
13,HMQVSEQVQRLLDALENDTLTTKELMDRLGLKHRPTFRKNYLLPSMKLGLVEMTIPDKPNSSRQKYRRRQ,-0.566
14,HMQVTEVDYGTFMKMVEEKNVGEVEVGNSMIVFTDKDGKAIYKTGAMNDPNLTERLYNAGASFTKE,0.144
15,HMQVTGLTAENAHRVTMIREKGTDHPPVPFHFRKEHHGTGNYVHLYGNPEDRNELHSRDFKDWEAVAFK,0.211
16,HMQVVDWSQVDKEDYLLATKRRAVSTGELKFLLLNNLTYDLTQTRFFKGMDASYYYEGYNLYQTGE,0.0696
17,HMQWGKVRRLPSGRYQASYVHKGTRYTAPETYTVQGRAHGWIESERRLIVTDTWTPPDTRPS,-1.24
18,HMQWLDSIRSRLRVGQTISYFEPRENASSSGLIIELRRKRVLVLEIATQKRWLIEYAAINVDG,-0.279
19,HMQWQPSEEAMQRLEQHGIPRAFSFSQLDAFVLQGQEQGSNRNDWNTRFFRFIKNQWVYAQN,-2.59
20,HMQYDSYTVEEPAKLLDWLLAHLRQSRTKIKATLQGHGIKVNGKTVTQFDYPLEPGMKIRVSLTK,-1.24
21,HMQYKTRVINLSILEVGMVLGRDLINKDGKIIVKKDVAISDFLKDHLIGLSKIKEIEPQIYIKV,-1.15
22,HMQYSIQVNKLLKAMREDVWYTANEILDLLKLKSKETLRKNYLDPAINNKLIILELPDKPTSRNQRYKI,-2.03
23,HMQYTQKTMYINDSYVNLRKSASTSSDIIMVVELNTKLTVIGEDGDWYKVKTSSGNAYVLKTLLSNEKKET,-3.22
24,HMQYTTDEVRERVLSVLNQLLLRWIVREGKDMFNIQANAVEISEGIKGELNTELEKIGLAATGFQIDSV,-0.393

row,Sequence,soluble fraction (log2)
1,HMRADRLISMLMLLQARGKITAEELAVELGVSQRTIYRDIEALSFAGVPVYAERGPGGGIGLLEPY,-1.73
2,HMRAEPNSNYSLAIIYKNRYDIAVKKKDAVKEVEYGKMVYEYLNKYVVLSGNKSAKYKKILNYFSSY,-3.02
3,HMRAFTPSEAQVAHARRVMEAFWQHQREGHGAFALDGKMVDAPIVKAAARVLARAGLQDPNHPIHLA,-0.332
4,HMRALPFSFANRHGVLIREISDGVAHAVYRIGSSPLGLAEARRFVGMPLMLTPVAREAFDSLLQQTYEQG,-2.39
5,HMRAPEIEAARSDLDVGQTVQIVRHLHGNQYEVFYRGAQWQAEAVGSSGANDAQTAVITGKNGNILLIQI,0.0986
6,HMRAVPTKLAPFVEVLKAMLEADGHRPKAQRRTAKALHLELISRGYAGGYTRLTDYIRDWRQQQG,-2.36
7,HMRDANYFINPIHEWQKRYEALRASFVDRLPAQAVAQRFGYTITYIHLLRHQFKSGKIDFSEPVPEG,-4.19
8,HMRDFTQPQTASIGPRMREALARGTMTVEELREQFRTQEFPHESVRTAFLEELERVAAELGLA,0.349
9,HMRDISTDTSAWTFQDIKRYYDPQDLLTEKQVGQALSLIKGRNLNPLLNEVYIVAYKKKNGGAEFSLIV,-0.224
10,HMRDPLNTGFRQTLKDIVNSLPKNELYSPGVREEYIYPKIGVTSLGMEASMVLNGLISSRRKNIELKEKN,0.369
11,HMRDPVDKDNYLGDWDKNKTYPAGYVMTFGDKNYLALQEVPAGTKPGATDPDPFWVLDTGKTLKD,-0.14
12,HMRDQARQFFIDTWAKFQRHDALTPLEEKTAAIIALHPEYHRVLQNPESFITTDWRPESGDINPFMHL,-2.02
13,HMRDSYEVEGRIASVSPAAGTFVVAGVTVDYTGARFVGGTVAQLAPGVKVEVEGRRLANGTLQAREIEFD,-0.142
14,HMRDSYTFEDIEKLKDSYLQDSEKALEKLISIYEDTNQSLAIRTAALDIITDSQDPTFKLALEKIIS,-0.177
15,HMRDTAKTLLAMEVVGENNKKNLQAFGIQKGDQNYQTAVVVRLMQKALMEGDTSAIRLIGELTGD,-0.0652
16,HMRDTLSKQLLTEEMVLQFIREMREHDPGIGGEKLHAMYLGRFGRDYEYMVGRDKMEMIIAENNLNVR,-0.996
17,HMRDYDFGNLLYKLRIESGYTQKDIADMLGVTDKAVSKWENGIAKPTTNNIKLLSTIYNVSVEELLNG,-1.19
18,HMRDYKTALQEWVQRTPGQPIAYRLVDELGPDHARVFVMEVTVGGQSAGQGRGRTKKEAEQLAARAALEKL,-0.448
19,HMREEIESVYKTLAVTEIPYIARGNSARLGSGIQTVYDFYRMEGMQVSKILGRNGSVLWLELHG,0.0223
20,HMREEMYGLIGFITTSEVTDTFGQMEIKLENEPEMRINVRTNPGESLARGDAAKIISFNNSNGTFLVELTK,-0.921
21,HMREFQVMKQELQEMVHQRLDMSTELSDEAIGDVIDEVIMEKSRNMYISSVTKLTLRQELFNAIR,-1.68
22,HMREGRERRLSQLLSYLRTHHILTRSEYVKLTGLSPTAASSELKTFVTAGHIVRKGIASHSTYRLPH,-1.91
